Reference: patent US20260327578A1, “TRANSGLUTAMINASES AND USES THEREOF” (CURIE CO. INC., priority 2023, published 2026)

Key:
C. albicans = experiment: Preservative efficacy in body lotion against C. albicans; format: cell-based; settings: 0.005% in combinations, phenoxyethanol 0.7% alone, 0.3% combined, caprylyl glycol 0.7% alone, 0.35% combined, sodium benzoate 0.5% + EDTA 0.5%, 2% 2:1 propanediol:hexanediol, 0.5% CHA solution
Experimental: (§1) A vessel was filled with deionized water, placed under an overhead stirrer set to moderate mixing, and heated to 75-80° C. Glycerin was added to 2% and mixed until dissolved, followed by xanthan gum to 0.2%. At 75-80° C., cetearyl glucoside and cetearyl alcohol were added to 4% and 3%. Once both had melted fully, milk thistle seed oil was added and the batch was homogenized with a Silverson homogenizer with the standard emulsion screen until the batch had turned milky white. The batch was removed from heat and returned to propellor mixing with decreased speed to allow the emulsion to set up. At 40° C., pH was adjusted to pH 5.5-6.0 using citric acid or sodium hydroxide and split into several portions and allowed to finish cooling. Once cooled to room temperature, one portion of the body lotion was left unpreserved and the remaining portions were preserved with one or more substances selected from aseptilase, phenoxyethanol, caprylyl glycol, sodium benzoate, and EDTA. All samples were inoculated with E. coli (10^6 CFU/mL) and C. albicans (10^5 CFU/mL) and plated after 2 and 7 days.

E. coli = experiment: Preservative efficacy in body lotion against E. coli; format: cell-based; settings: 0.005% in combinations, phenoxyethanol 0.7% alone, 0.3% combined, caprylyl glycol 0.7% alone, 0.35% combined, sodium benzoate 0.5% + EDTA 0.5%, 2% 2:1 propanediol:hexanediol, 0.5% CHA solution
Experimental: as §1

collagen = experiment: Collagen-modifying activity with FITC-gelatin or FITC-cadaverine; format: biochemical; settings: 16 hours, pH 7.4
Experimental: Substrate specificity for collagen of Tgase variant A3 (SEQ ID NO: 4) was tested by allowing the variant to react with either fluorescein-labeled gelatin (FITC-Gelatin, to test protein-protein cross-linking) or fluorescein-labeled cadaverine (FITC-cadaverine, to test protein-small molecule cross-linking) with a collagen layer deposited on the bottom of a 96-well microtiter plate. Tgase variant A3 (SEQ ID NO: 4) and wild-type Tgase were diluted to 4-800 ppm in 50 mM phosphate buffer, pH 7.4, supplemented with 100 mM NaCl in 96-well collagen coated microtiter plates. Either FITC-gelatin or FITC-cadaverine was added to 1 g/L (final volume 100 μL) and the plates were sealed and incubated at either 37° C. or 50° C. for 16 hours. The reaction supernatants were carefully removed and then 200 μL 50 mM [COMPOUND LEFT OUT] mM NaCl, pH 7.4 buffer was added gently against the side of each well then carefully removed. This wash step was repeated. The plate-bound material was extracted by vigorously pipetting 100 μL dimethylsulfoxide into each well, then the extract was transferred into a black bottom 96-well plate. The fluorescence of the samples was measured at an excitation wavelength of 487 nm and an emission wavelength of 528 nm. The fluorescence signal is assumed to be proportionate to the concentration of fluorescent product extracted from the surface of the plate. For both FITC-gelatin and FITC-cadaverine, the fluorescence response per concentration enzyme was higher for wells treated with Tgase variant A3 (SEQ ID NO: 4) than for wells treated with wild-type Tgase (Table 11).

[1] = Thermal stability at 55 °C, specific activity by colorimetric hydroxamate assay; format: biochemical
Experimental: Tgase activity was measured herein using a colorimetric hydroxamate activity assay (Folk and Cole (1965) J Biol Chemistry 240 (7): 2951-2960). Briefly, the hydroxamate assay uses N-benzyloxycarbonyl-L-glutaminyl-glycine (ZQG) as a low molecular weight amine acceptor substrate and hydroxylamine as an amine donor. In the presence of catalytically active Tgase, the hydroxylamine is incorporated to form Z-glutamylhydroxamate-glycine, which develops a colored complex with iron (III), detectable at 525 nm after incubation at 37° C. for 5-200 minutes. The calibration was performed using L-glutamic acid gamma-monohydroxamate (Millipore® Sigma®) as a standard. One unit of Tgase was defined as the amount of enzyme that catalyzes formation of 1 μmol of the peptide derivative of gamma-glutamylhydroxylamine per minute. Activity of Tgase variants is depicted in Tables 2-4.
A commercially available wild-type Tgase (Ajinimoto®, Activa® TI formulation) formulated at 0.75-1.0% enzyme in maltodextrin was purchased from Amazon.com and dissolved in water at 20% w/v. The concentration of the mature Tgase in the solution was confirmed by high-performance liquid chromatography (HPLC) and the sample was further diluted to 0.1 g/L of enzyme. Following dilution, the enzyme was subjected to the hydroxamate assay as described in Example 4 to determine specific activity. The specific activity of the commercial wild-type Tgase compared to Tgase variant A3 (SEQ ID NO: 4), further comprising an N-terminal methionine, is shown in FIG. 1.
The thermal stability of Tgase variant A3 (SEQ ID NO: 4) compared to the commercial wild-type Tgase was evaluated by incubating the samples at 55° C. and testing the enzyme concentration and activity at various timepoints. Six timepoints were tested: 0, 30, 60, 120, 240, and 480 minutes.
The enzyme concentration was measured by HPLC. The samples were diluted 10-fold in 50 mM phosphate pH 7.4, 100 mM NaCl. The samples were tested by reverse phase using a Zorbax SB300-C8 column with 0.1% trifluoroacetic acid in water (MPA) and 0.08% trifluoroacetic acid in acetonitrile (MPB).
The activity was determined using the colorimetric activity assay described in Example 4A. The specific activity (U/mg) of the samples was calculated using the concentration of each sample as determined per Example 4D (results shown in Table 10).

## CCCCCCC(O)CO (stereo not drawn) [caprylyl glycol]
C. albicans; day 2, aseptilase 0.01% alone
  Preservative efficacy against C. albicans, log reduction: 1.18 log reduction in CFU/mL
C. albicans; day 7, aseptilase 0.01% alone
  Preservative efficacy against C. albicans, log reduction: 2.70 log reduction in CFU/mL
E. coli; day 2, aseptilase 0.01% alone
  Preservative efficacy against E. coli, log reduction: 5.00 log reduction in CFU/mL
E. coli; day 7, aseptilase 0.01% alone
  Preservative efficacy against E. coli, log reduction: 5.00 log reduction in CFU/mL

## OCCOc1ccccc1 [phenoxyethanol]
C. albicans; day 2, aseptilase 0.01% alone
  Preservative efficacy against C. albicans, log reduction: 0.68 log reduction in CFU/mL
C. albicans; day 7, aseptilase 0.01% alone
  Preservative efficacy against C. albicans, log reduction: 1.73 log reduction in CFU/mL
E. coli; day 2, aseptilase 0.01% alone
  Preservative efficacy against E. coli, log reduction: 2.15 log reduction in CFU/mL
E. coli; day 7, aseptilase 0.01% alone
  Preservative efficacy against E. coli, log reduction: 3.00 log reduction in CFU/mL

B1: Wild-type Tgase: commercially available wild-type Tgase (Ajinimoto, Activa TI formulation) formulated at 0.75-1.0% enzyme in maltodextrin (protein, UniProt P81453 77-407, looked up)
Protein-glutamine …: DSDDRVTPPAEPLDRMPDPYRPSYGRAETVVNNYIRKWQQVYSHRDGRKQQMTEEQREWLSYGCVGVTWVNSGQYPTNRLAFASFDEDRFKNELKNGRPRSGETRAEFEGRVAKESFDEEKGFQRAREVASVMNRALENAHDESAYLDNLKKELANGNDALRNEDARSPFYSALRNTPSFKERNGGNHDPSRMKAVIYSKHFWSGQDRSSSADKRKYGDPDAFRPAPGTGLVDMSRDRNIPRSPTSPGEGFVNFDYGWFGAQTEADADKTVWTHGNHYHAPNGSLGAMHVYESKFRNWSEGYSDFDRGAYVITFIPKSWNTAPDKVKQGWP
modifications: formulated in maltodextrin
collagen; FITC-Cadaverine, 37 °C
  Fluorescence/[Enzyme]: 6.7 RFU/ppm
collagen; FITC-Cadaverine, 50 °C
  Fluorescence/[Enzyme]: 4.4 RFU/ppm
collagen; FITC-Gelatin, 37 °C
  Fluorescence/[Enzyme]: 4.6 RFU/ppm
collagen; FITC-Gelatin, 50 °C
  Fluorescence/[Enzyme]: 6.8 RFU/ppm
[1]; timepoint 0 min
  Specific activity: 23.3 U/mg
[1]; timepoint 30 min
  Specific activity: 31.0 U/mg
[1]; timepoint 60 min
  Specific activity: 27.0 U/mg
[1]; timepoint 120 min
  Specific activity: 29.3 U/mg
[1]; timepoint 240 min
  Specific activity: 36.8 U/mg
[1]; timepoint 480 min
  Specific activity: 21.2 U/mg
